{"source": "patent US20020004209A1", "about": "“Use of SLIM3 for binding to molecules” (Schering Aktiengesellschaft Patents, priority 1999, published 2002)", "key": {"[1]": {"molecular_target": "co-activator TIF2 (Homo sapiens, UniProt Q15596)", "sequence (Q15596 whole entry, the tested form may be a part)": "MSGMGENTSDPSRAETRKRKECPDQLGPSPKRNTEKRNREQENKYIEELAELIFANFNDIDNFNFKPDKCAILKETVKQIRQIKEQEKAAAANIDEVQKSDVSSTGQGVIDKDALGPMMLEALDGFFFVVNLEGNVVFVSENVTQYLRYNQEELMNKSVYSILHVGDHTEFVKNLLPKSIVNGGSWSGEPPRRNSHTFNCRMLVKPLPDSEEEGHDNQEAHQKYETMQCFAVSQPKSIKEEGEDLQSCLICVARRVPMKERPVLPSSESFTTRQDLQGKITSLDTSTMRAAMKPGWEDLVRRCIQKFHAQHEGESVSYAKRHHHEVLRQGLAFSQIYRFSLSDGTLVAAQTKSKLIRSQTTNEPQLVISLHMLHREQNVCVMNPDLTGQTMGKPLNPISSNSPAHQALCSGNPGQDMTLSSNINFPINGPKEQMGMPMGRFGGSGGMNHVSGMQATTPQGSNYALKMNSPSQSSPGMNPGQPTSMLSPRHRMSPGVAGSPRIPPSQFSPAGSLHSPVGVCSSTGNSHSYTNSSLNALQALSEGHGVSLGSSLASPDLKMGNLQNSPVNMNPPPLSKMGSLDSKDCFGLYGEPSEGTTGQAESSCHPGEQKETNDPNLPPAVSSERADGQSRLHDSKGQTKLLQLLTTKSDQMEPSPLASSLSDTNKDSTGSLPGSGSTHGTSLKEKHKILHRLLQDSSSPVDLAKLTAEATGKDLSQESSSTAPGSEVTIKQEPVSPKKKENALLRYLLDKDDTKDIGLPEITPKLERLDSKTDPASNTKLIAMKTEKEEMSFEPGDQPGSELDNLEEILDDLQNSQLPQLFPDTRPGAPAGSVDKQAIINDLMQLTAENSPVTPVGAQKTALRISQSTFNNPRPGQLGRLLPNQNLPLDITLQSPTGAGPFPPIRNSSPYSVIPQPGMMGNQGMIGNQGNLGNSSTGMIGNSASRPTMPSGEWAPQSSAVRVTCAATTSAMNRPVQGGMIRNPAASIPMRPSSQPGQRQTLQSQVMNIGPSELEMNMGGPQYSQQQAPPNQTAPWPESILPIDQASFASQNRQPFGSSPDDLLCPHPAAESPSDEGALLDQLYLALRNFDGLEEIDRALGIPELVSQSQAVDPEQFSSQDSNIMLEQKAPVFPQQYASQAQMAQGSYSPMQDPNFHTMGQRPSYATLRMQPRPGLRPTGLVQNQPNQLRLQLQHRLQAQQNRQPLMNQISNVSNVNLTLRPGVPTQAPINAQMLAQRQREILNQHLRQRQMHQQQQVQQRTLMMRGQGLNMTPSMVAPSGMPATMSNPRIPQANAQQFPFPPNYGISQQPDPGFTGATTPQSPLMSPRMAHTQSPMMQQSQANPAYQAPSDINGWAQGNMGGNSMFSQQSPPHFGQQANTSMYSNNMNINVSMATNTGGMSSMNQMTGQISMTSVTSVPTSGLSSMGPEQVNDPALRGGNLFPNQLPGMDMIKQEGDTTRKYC", "sequence (Q14192 whole entry partner, the tested form may be a part)": "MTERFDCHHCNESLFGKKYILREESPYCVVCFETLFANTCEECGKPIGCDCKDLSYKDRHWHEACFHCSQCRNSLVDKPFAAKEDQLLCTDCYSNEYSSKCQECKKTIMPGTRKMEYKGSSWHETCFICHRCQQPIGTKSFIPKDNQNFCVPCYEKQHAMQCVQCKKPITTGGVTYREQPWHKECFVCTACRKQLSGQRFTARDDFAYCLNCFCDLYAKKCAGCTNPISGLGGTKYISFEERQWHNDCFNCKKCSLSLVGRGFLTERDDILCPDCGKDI", "assay": "GST-protein-interaction test", "assay_type": "binding", "conditions": "in vitro", "experimental": "(§1) To measure the interaction between SLIM3 and the nuclear receptors in vitro, the GST-Slim3 fusion protein was immobilized by means of glutathione-sepharose and incubated with several in vitro-translated ^35S-methionine-labeled nuclear receptors. The complete human androgen receptor binds to GST-Slim3. This in vitro interaction is not ligand-dependent under standard conditions. The complete human androgen receptor binds specifically to GST-Slim3, but not to the GST protein alone. To safeguard the specificity between the human androgen receptor and SLIM3, another GST-protein-interaction test was carried out (GST-protein-interaction assay). This test is described in E. PFITZNER et al. (1995) Functional Antagonism Between the Retinoid Acid Receptor and the Viral Transactivator BZLF1 is Mediated by Protein-Protein Interactions. Proc Natl Acad Sci USA Vol. 92, pp. 12265-12269."}, "[2]": {"molecular_target": "T1, estrogen receptors alpha (Homo sapiens, UniProt P03372)", "T1 construct": "made in house; host or cells: in vitro translation, 35S-methionine labelled", "T1 sequence (P03372 1-595)": "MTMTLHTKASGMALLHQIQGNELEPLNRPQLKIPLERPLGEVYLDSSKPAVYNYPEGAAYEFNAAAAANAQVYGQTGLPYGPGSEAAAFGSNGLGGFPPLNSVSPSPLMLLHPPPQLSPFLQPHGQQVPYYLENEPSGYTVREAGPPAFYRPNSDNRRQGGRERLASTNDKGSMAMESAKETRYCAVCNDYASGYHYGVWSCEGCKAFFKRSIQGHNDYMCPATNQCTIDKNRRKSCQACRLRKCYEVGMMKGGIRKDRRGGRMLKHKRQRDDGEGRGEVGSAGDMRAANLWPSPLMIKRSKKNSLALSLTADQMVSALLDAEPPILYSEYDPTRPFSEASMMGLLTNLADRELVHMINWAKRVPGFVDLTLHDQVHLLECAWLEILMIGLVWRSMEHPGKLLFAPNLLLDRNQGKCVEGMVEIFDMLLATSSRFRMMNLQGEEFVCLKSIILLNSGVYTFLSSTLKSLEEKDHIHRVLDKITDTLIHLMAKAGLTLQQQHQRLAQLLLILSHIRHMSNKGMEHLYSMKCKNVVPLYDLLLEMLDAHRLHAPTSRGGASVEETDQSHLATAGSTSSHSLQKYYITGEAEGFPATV", "assay": "GST-protein-interaction test", "assay_type": "binding", "conditions": "in vitro", "experimental": "as §1"}, "[3]": {"molecular_target": "T2, glucocorticoid receptors (Homo sapiens, UniProt P04150)", "T2 construct": "made in house; host or cells: in vitro translation, 35S-methionine labelled", "T2 sequence (P04150 1-777)": "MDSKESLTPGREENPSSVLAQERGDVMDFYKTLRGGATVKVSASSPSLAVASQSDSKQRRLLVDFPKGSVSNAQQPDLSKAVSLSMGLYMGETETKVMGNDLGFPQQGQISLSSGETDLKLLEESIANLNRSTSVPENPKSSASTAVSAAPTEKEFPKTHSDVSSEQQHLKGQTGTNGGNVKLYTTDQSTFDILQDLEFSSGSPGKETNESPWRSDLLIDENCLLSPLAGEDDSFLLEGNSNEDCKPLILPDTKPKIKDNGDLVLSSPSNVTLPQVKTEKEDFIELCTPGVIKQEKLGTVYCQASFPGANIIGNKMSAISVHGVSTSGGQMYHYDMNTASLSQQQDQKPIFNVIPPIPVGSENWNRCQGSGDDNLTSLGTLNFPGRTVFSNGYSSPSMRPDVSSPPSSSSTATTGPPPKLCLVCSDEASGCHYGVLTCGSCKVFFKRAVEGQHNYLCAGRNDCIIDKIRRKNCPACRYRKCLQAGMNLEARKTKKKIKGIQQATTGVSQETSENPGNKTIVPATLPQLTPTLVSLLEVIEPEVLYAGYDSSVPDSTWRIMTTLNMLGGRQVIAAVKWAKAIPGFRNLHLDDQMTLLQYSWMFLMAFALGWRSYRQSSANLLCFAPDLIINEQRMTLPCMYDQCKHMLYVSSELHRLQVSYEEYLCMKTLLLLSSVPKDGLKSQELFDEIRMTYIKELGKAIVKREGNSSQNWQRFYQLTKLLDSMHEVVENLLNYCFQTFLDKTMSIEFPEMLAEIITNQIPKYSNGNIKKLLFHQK", "assay": "GST-protein-interaction test", "assay_type": "binding", "conditions": "in vitro", "experimental": "as §1"}, "[4]": {"molecular_target": "T3, progesterone receptor beta (Homo sapiens, UniProt P06401)", "T3 construct": "made in house; host or cells: in vitro translation, 35S-methionine labelled", "T3 sequence (P06401 1-933)": "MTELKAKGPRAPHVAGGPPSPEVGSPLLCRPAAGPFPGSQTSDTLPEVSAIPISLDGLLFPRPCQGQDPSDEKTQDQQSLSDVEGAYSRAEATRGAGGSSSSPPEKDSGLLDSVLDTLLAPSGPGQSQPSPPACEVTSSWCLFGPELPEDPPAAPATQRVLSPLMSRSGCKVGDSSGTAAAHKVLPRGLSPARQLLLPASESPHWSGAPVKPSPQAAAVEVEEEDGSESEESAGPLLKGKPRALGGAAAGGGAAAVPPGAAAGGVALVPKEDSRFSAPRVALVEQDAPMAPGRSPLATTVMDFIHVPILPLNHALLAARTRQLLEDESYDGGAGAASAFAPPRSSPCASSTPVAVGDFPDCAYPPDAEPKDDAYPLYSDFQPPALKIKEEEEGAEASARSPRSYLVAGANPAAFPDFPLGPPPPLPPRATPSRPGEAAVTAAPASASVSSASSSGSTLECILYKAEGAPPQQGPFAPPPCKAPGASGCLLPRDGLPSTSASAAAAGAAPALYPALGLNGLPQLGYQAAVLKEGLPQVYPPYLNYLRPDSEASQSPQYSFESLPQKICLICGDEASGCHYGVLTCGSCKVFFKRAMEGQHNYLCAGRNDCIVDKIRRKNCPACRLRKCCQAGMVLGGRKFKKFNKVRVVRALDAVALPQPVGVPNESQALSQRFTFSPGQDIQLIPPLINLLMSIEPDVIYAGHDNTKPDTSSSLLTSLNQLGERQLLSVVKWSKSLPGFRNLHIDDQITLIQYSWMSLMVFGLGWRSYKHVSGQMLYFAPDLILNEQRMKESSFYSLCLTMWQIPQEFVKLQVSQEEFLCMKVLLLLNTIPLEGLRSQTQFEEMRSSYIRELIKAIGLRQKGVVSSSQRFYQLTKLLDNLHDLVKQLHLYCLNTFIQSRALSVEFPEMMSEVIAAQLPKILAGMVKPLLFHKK", "assay": "GST-protein-interaction test", "assay_type": "binding", "conditions": "in vitro", "experimental": "as §1"}, "[5]": {"molecular_target": "co-activator SRC1 (Homo sapiens, UniProt Q15788)", "sequence (Q15788 whole entry)": "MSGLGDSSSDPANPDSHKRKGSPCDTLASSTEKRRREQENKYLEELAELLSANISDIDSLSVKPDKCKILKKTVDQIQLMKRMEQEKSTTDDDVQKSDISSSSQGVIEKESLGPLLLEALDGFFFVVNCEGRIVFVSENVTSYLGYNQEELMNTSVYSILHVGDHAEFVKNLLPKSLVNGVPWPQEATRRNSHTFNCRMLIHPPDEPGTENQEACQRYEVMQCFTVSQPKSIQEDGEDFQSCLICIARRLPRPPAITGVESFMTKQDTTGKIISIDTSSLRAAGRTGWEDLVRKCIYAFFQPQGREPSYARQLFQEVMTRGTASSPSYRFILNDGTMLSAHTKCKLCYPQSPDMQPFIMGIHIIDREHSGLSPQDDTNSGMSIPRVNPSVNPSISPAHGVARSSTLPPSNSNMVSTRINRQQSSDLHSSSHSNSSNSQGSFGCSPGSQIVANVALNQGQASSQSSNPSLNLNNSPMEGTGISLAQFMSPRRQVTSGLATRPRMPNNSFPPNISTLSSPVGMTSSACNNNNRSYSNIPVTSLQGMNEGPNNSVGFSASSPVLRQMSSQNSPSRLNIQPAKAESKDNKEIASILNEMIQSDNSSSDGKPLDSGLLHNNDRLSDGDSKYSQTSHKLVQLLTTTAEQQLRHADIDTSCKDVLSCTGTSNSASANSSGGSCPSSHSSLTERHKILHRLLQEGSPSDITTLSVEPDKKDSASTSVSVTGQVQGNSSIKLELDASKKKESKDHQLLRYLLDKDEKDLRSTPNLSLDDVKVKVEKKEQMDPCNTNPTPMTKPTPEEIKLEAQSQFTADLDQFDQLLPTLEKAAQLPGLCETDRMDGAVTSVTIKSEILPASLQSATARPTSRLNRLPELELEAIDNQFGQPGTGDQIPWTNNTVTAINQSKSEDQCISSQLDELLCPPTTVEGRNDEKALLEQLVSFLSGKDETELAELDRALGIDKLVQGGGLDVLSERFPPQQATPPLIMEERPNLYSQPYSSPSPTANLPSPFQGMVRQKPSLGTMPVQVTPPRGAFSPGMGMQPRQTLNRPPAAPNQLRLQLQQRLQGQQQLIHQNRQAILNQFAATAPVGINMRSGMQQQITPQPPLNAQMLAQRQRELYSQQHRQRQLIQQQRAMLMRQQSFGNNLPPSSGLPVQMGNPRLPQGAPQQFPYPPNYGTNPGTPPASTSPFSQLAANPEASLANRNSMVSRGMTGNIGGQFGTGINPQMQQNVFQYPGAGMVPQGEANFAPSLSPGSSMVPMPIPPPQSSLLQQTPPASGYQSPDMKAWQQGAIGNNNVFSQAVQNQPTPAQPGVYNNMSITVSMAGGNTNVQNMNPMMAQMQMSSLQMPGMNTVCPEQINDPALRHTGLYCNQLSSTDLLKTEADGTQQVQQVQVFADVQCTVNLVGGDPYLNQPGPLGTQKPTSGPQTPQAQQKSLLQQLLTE", "assay": "GST-protein-interaction test", "assay_type": "binding", "conditions": "in vitro"}, "[6]": {"tested_on": "DNA", "assay": "DNA binding"}}}
{"substance": "SLIM3: LIM-domain protein of 279 amino acids, co-activator for nuclear receptors AR and ERβ", "values": [{"measurement": "interaction with co-activator", "setting": "[1]", "result": "interacts"}, {"measurement": "bond to SLIM3", "setting": "[2]", "result": "no bond"}, {"measurement": "bond to SLIM3", "setting": "[3]", "result": "no bond"}, {"measurement": "bond to SLIM3", "setting": "[4]", "result": "no bond"}, {"measurement": "interaction with co-activator", "setting": "[5]", "result": "no interaction"}, {"measurement": "binding to DNA", "setting": "[6]", "result": "does not bind"}]}
